Test results published in patent US20260199507A1 (MULTITUDE THERAPEUTICS, published 2026).

Biological target: T1, CD142 (Tissue Factor) on BxPC3 human pancreatic cancer cells (human, UniProt P13726 33-295)
T1 construct: whole, on cells; also called TF
Assay: flow cytometry on BxPC3 cells
Protocol: Digested cells were centrifuged at 1000 rpm for 5 min and blocked with 10% goat serum (purchased from SenBeiJia Biological Technology Co., Ltd., Product No. SRJ-SE-GO012) for 30 min. Then Hu02 antibodies L1H1, L1H2, L1H3, L1H4, L1H5, L1H6, L2H1, L2H2, L2H3, L2H5, and L2H6 prepared in Example 5 were serially diluted 3 times with an initial concentration of 500 nM. After that, the Hu02 antibody was added to the cells and incubated for 1 h. After washing twice with PBS, FITC-labeled goat anti-human antibody (purchased from Sigma, product No. FS9512-2ML) was added at 1:500 and incubated for 1 h. The results were analyzed by flow cytometry (BD biosciences, product No. BD Accuri C6 Plus) after washing twice with PBS.

Binder	EC50
Hu02 L1H1 (antibody, human IgG1, kappa, V domains shown) VH: EVQLVESGGGLVQPGGSLRLSCAASGFTFTEYHMSWVRQAPGKGLEWVGFIRNRANGYTTEYAASVKGRFTISRDDSKNSLYLQMNSLKTEDTAVYYCARLTMVVAEFDYWGQGTLVTVSS VL: DIQMTQSPSSLSASVGDRVTITCQASQDINKYLNWYQHKPGKGPKLLIYYTSTLQTGVPSRFSGSGSGTDFTFTVSNLQPEDIATYYCLQYDNLLTFGQGTKLEIKR	11.6 nM
Hu02 L1H6 (antibody, human IgG1, kappa, V domains shown) VH: EVQLVESGGGLVQPGGSLRLSCAASGFTFTEYHMSWVRQAPGKGLEWVGFIRNRAQGYTTEYAASVKGRFTISRDNSKNSLYLQMNTLRTEDTAVYYCARLTMVVAEFDYWGQGTLVTVSS VL: DIQMTQSPSSLSASVGDRVTITCQASQDINKYLNWYQHKPGKGPKLLIYYTSTLQTGVPSRFSGSGSGTDFTFTVSNLQPEDIATYYCLQYDNLLTFGQGTKLEIKR	10.2 nM
Hu02 L1H5 (antibody, human IgG1, kappa, V domains shown) VH: EVQLVESGGGLVQPGGSLRLSCAASGFTFTEYHMSWVRQAPGKGLEWVGFIRNRANAYTTEYAASVKGRFTISRDNSKNSLYLQMNTLRTEDTAVYYCARLTMVVAEFDYWGQGTLVTVSS VL: DIQMTQSPSSLSASVGDRVTITCQASQDINKYLNWYQHKPGKGPKLLIYYTSTLQTGVPSRFSGSGSGTDFTFTVSNLQPEDIATYYCLQYDNLLTFGQGTKLEIKR	9.48 nM
Hu02 L2H6 (antibody, human IgG1, kappa, V domains shown) VH: EVQLVESGGGLVQPGGSLRLSCAASGFTFTEYHMSWVRQAPGKGLEWVGFIRNRAQGYTTEYAASVKGRFTISRDNSKNSLYLQMNTLRTEDTAVYYCARLTMVVAEFDYWGQGTLVTVSS VL: AIQMTQSPSSLSASVGERVTITCRASQDINKYLNWYQHKPGKGPKLLIYYTSTLQTGVPSRFSGSGSGTDFTFTVSNLQPEDIATYYCLQYDNLLTFGQGTKLEIKR	6.54 nM
Hu02 L1H4 (antibody, human IgG1, kappa, V domains shown) VH: EVQLVESGGGLVQPGGSLRLSCAASGFTFTEYHMSWVRQAPGKGLEWVGFIRNRANGYTTEYAASVKGRFTISRDNSKNSLYLQMNTLRTEDTAVYYCARLTMVVAEFDYWGQGTLVTVSS VL: DIQMTQSPSSLSASVGDRVTITCQASQDINKYLNWYQHKPGKGPKLLIYYTSTLQTGVPSRFSGSGSGTDFTFTVSNLQPEDIATYYCLQYDNLLTFGQGTKLEIKR	6.39 nM
Hu02 L2H5 (antibody, human IgG1, kappa, V domains shown) VH: EVQLVESGGGLVQPGGSLRLSCAASGFTFTEYHMSWVRQAPGKGLEWVGFIRNRANAYTTEYAASVKGRFTISRDNSKNSLYLQMNTLRTEDTAVYYCARLTMVVAEFDYWGQGTLVTVSS VL: AIQMTQSPSSLSASVGERVTITCRASQDINKYLNWYQHKPGKGPKLLIYYTSTLQTGVPSRFSGSGSGTDFTFTVSNLQPEDIATYYCLQYDNLLTFGQGTKLEIKR	8.12 nM
Hu02 L2H2 (antibody, human IgG1, kappa, V domains shown) VH: EVQLVESGGGLVQPGGSLRLSCAASGFTFTEYHMSWVRQAPGKGLEWVGFIRNRANAYTTEYAASVKGRFTISRDDSKNSLYLQMNSLKTEDTAVYYCARLTMVVAEFDYWGQGTLVTVSS VL: AIQMTQSPSSLSASVGERVTITCRASQDINKYLNWYQHKPGKGPKLLIYYTSTLQTGVPSRFSGSGSGTDFTFTVSNLQPEDIATYYCLQYDNLLTFGQGTKLEIKR	18.3 nM
Hu02 L2H1 (antibody, human IgG1, kappa, V domains shown) VH: EVQLVESGGGLVQPGGSLRLSCAASGFTFTEYHMSWVRQAPGKGLEWVGFIRNRANGYTTEYAASVKGRFTISRDDSKNSLYLQMNSLKTEDTAVYYCARLTMVVAEFDYWGQGTLVTVSS VL: AIQMTQSPSSLSASVGERVTITCRASQDINKYLNWYQHKPGKGPKLLIYYTSTLQTGVPSRFSGSGSGTDFTFTVSNLQPEDIATYYCLQYDNLLTFGQGTKLEIKR	18.1 nM
Hu02 L2H3 (antibody, human IgG1, kappa, V domains shown) VH: EVQLVESGGGLVQPGGSLRLSCAASGFTFTEYHMSWVRQAPGKGLEWVGFIRNRAQGYTTEYAASVKGRFTISRDDSKNSLYLQMNSLKTEDTAVYYCARLTMVVAEFDYWGQGTLVTVSS VL: AIQMTQSPSSLSASVGERVTITCRASQDINKYLNWYQHKPGKGPKLLIYYTSTLQTGVPSRFSGSGSGTDFTFTVSNLQPEDIATYYCLQYDNLLTFGQGTKLEIKR	25.2 nM
Hu02 L1H3 (antibody, human IgG1, kappa, V domains shown) VH: EVQLVESGGGLVQPGGSLRLSCAASGFTFTEYHMSWVRQAPGKGLEWVGFIRNRAQGYTTEYAASVKGRFTISRDDSKNSLYLQMNSLKTEDTAVYYCARLTMVVAEFDYWGQGTLVTVSS VL: DIQMTQSPSSLSASVGDRVTITCQASQDINKYLNWYQHKPGKGPKLLIYYTSTLQTGVPSRFSGSGSGTDFTFTVSNLQPEDIATYYCLQYDNLLTFGQGTKLEIKR	19.7 nM
Hu02-L1H2 (antibody, human IgG1, kappa, V domains shown) VH: EVQLVESGGGLVQPGGSLRLSCAASGFTFTEYHMSWVRQAPGKGLEWVGFIRNRANAYTTEYAASVKGRFTISRDDSKNSLYLQMNSLKTEDTAVYYCARLTMVVAEFDYWGQGTLVTVSS VL: DIQMTQSPSSLSASVGDRVTITCQASQDINKYLNWYQHKPGKGPKLLIYYTSTLQTGVPSRFSGSGSGTDFTFTVSNLQPEDIATYYCLQYDNLLTFGQGTKLEIKR	13.2 nM
Ch02 (antibody, human IgG1, kappa, V domains shown, also called chimeric antibody Ch02; Ch02 antibody) VH: EVKLVESGGGLVQPGGSLRLSCATSGFTFTEYHMSWVRQPPGKALEWLGFIRNRANGYTTEYSASVKGRFTISRDNSQNILYLQMNTLRTEDSATYYCARLTMVVAEFDYWGQGTTLTVSS VL: DIQMTQSPSSLSASLGGEVTITCKASQDINKYIAWYQHKPGKGPRLLIHYTSTLQPGIPSRFSGSGSGRDYSFSVSNLEPEDIATYYCLQYDNLLTFGAGTKLELKR	19.2 nM

Biological target: T1, CD142 (Tissue Factor) on BxPC3 human …
Assay: flow cytometry on BxPC3 cells, antibody at 20 ug/mL, FITC goat anti-mouse detection
Protocol: Digested cells were centrifuged at 1000 rpm for 5 min and blocked with 10% goat serum (purchased from SenBeiJia Biological Technology Co., Ltd., Product No. SRJ-SE-GOO12) for 30 min. Then Mu01 and Mu02 antibodies respectively prepared in Example 4 and Example 5 were added at a final concentration of 20 μg/mL and incubated for 1 h. After washing with Phosphate buffer (PBS, PH 7.2-7.4) for 2 times, FITC-labeled goat anti-mouse antibody (purchased from Jackson ImmunoResearch, No. 115-545-003) was added at 1:500 and incubated for 1 hour. Analyzed the resulting product by flow cytometry after washing with PBS for 2 times.

Binder	binding result
Mu01 (antibody, V domains shown, Murine hybridoma antibody purified from ascites; also called monoclonal antibody Mu01; antibody Mu01) VH: QVQLQQSGAELVRPGSSVKISCKASGYTFSSYWMYWVKQRPGQGLEWIGQIYPGDGDSNYNENFKGKATLTADKSSSTAYMQLSSLTSEDSAVYFCTREGYGNRFAYWGQGTLVTVSA VL: QIVLTQSPALMSASPGEKVTMTCSASSSVSYMYWYQQKPRSSPKPWINLTSNLASGVPARFSGRGSGTSYSLTISSMEAEDAATYYCQQWSYNPPTFGGGTKLEIK	binds

Biological target: T1, CD142 (Tissue Factor) on BxPC3 human …
Assay: flow cytometry on BxPC3 cells, 3-fold dilutions from 500 nM, FITC goat anti-human detection
Protocol: Digested cells were centrifuged at 1000 rpm for 5 min and blocked with 10% goat serum (purchased from SenBeiJia Biological Technology Co., Ltd., Product No. SRJ-SE-GO012) for 30 min. Then Hu01 antibodies L5H2, L5H1, L3H1, L3H2 prepared in Example 4 were diluted with a 3-fold gradient at the initial concentration of 500 nM. After that, the Hu01 antibody was added to the cells and incubated for 1 h. After washing twice with PBS, FITC-labeled goat anti-human antibody (purchased from Sigma, product No. FS9512-2ML) was added at 1:500 and incubated for 1 h. The results were analyzed by flow cytometry after washing twice with PBS.

Binder	binding result
Hu01 L5H2 (antibody, human IgG1, kappa, V domains shown) VH: QVQLVQSGAEVKRPGSSVKVSCKASGYTFSSYWMYWVRQAPGQGLEWIGQIYPGDGDSNYNENFQGRVTITADKSTSTAYMELSSLTSEDSAVYFCTREGYGNRFAYWGQGTLVTVSS VL: EIVLTQSPALLSLSPGERATLSCSASSSVSYMYWYQQKPGQAPRLLIQLTSNLASGVPARFSGRGSGTDFTLTISSLEPEDFAVYYCQQWSYNPPTFGGGTKVEIKR	binds
Hu01-L3H1 (antibody, human IgG1, kappa, V domains shown, also called Hu01 antibody L3H1) VH: QVQLVQSGAEVKRPGSSVKVSCKASGYTFSSYWMYWVRQAPGQGLEWIGQIYPGDGDSNYNENFQGRVTITADKSTSTAYMELSSLRSEDTAVYYCTREGYGNRFAYWGQGTLVTVSS VL: EIVLTQSPALMSLSPGERATLSCSASSSVSYMYWYQQKPRSAPRPWIQLTSNLASGVPARFSGRGSGTDFSLTISSLEAEDFATYYCQQWSYNPPTFGGGTKVEIKR	binds
Hu01 L3H2 (antibody, human IgG1, kappa, V domains shown) VH: QVQLVQSGAEVKRPGSSVKVSCKASGYTFSSYWMYWVRQAPGQGLEWIGQIYPGDGDSNYNENFQGRVTITADKSTSTAYMELSSLTSEDSAVYFCTREGYGNRFAYWGQGTLVTVSS VL: EIVLTQSPALMSLSPGERATLSCSASSSVSYMYWYQQKPRSAPRPWIQLTSNLASGVPARFSGRGSGTDFSLTISSLEAEDFATYYCQQWSYNPPTFGGGTKVEIKR	binds
Hu01 L5H1 (antibody, human IgG1, kappa, V domains shown) VH: QVQLVQSGAEVKRPGSSVKVSCKASGYTFSSYWMYWVRQAPGQGLEWIGQIYPGDGDSNYNENFQGRVTITADKSTSTAYMELSSLRSEDTAVYYCTREGYGNRFAYWGQGTLVTVSS VL: EIVLTQSPALLSLSPGERATLSCSASSSVSYMYWYQQKPGQAPRLLIQLTSNLASGVPARFSGRGSGTDFTLTISSLEPEDFAVYYCQQWSYNPPTFGGGTKVEIKR	binds
